Tested on: MS2 coat protein
Assay: apparent KD of MS2 coat protein; designed switch direction (-1 OFF switch, 1 ON switch): -1; higher = weaker reporter binding
Procedure, shortened: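 For each design, the apparent KD is the median over clusters of curves fitted to normalised cluster fluorescence. Clusters held RNA switches with common flanks, transcribed on Illumina chips by stalled E. coli RNA polymerase. These were titrated with SNAP-549-labelled MS2 coat protein, doubling from 0.7 or 1.5 nM to 3 µM, without input, with 200 uM small-molecule ligand, or with an oligonucleotide input.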

[1] = input ligand: microRNA oligo, concentration not stated
[2] = Eterna round: R95, input ligand: FMN 200 uM
[3] = Eterna round: R95, input ligand: microRNA oligo, concentration not stated
[4] = Eterna round: R95, input ligand: none

Sequence | apparent KD of MS2 coat protein (input ligand: FMN 200 uM) [nM] | apparent KD of MS2 coat protein [1] [nM] | apparent KD of MS2 coat protein (input ligand: none) [nM] | apparent KD of MS2 coat protein [2] [nM] | apparent KD of MS2 coat protein [3] [nM] | apparent KD of MS2 coat protein [4] [nM]
AAACGGCAUAGAGGAUAUGCUUACCUGGGUCGUCUUCAAACAUGAGGAUCACCCAUGUAGUCGACGCAGAAGGUUAUCAAAGCC [ExNG2 2nd] (Eterna round: R96, puzzle: Exclusion NG 2) | 16 | 12.2 | 17.9 | – | – | –
AGGAGUAGUAUCCGAUCCUACAUGAGGAUCACCCAUGUAGCUAGACGUGCACGCGAUGCUCGUCAGACUACCAGAUG [salish99_TOv1_r3_034] (puzzle: Sensor v3, turn-off variant 1) | – | – | – | 99.4 | 116 | 143
UGCAUGUGAGGAUAUGGCGCUCGAUUGCGGAAGGAGCGAGUUUAGAAGGUACAUGAGGAUCACCCAUGUCACGU [Eternabot (L2) Solution 97] (Eterna round: R97, puzzle: Exclusion 4) | 21.6 | – | 25.9 | – | – | –
CAACUGUGAGGAUAUGGUGAGUAGUGCCUGAGCGCUGCUCACCAGAAGGCACAUGAGGAUCACCCAUGUAUAAC [Mat - Exclusion 4 - Mod of JL - D4] (puzzle: Exclusion 4) | – | – | – | – | 35.6 | –
AAAAAGGUAGGAUAUACGAAAAAAAAGGGUAGAAAAAAAACACAUGAGGAUCACCCAUGUAGAAGGACCAAAAG [salish99_ex2_r3_045] (puzzle: Exclusion 2) | – | – | – | 58.7 | 32 | 28.4
AUUUUGUCAGGAUAUGAGUAGUAGGACGAAAGUGUUAUUAUUUAGAAGGGACAUGAGGAUCACCCAUGUUCCUC [Bring Us a Shrubbery-03] (Eterna round: R96, puzzle: Exclusion 4) | 13.9 | 10.7 | 13.7 | – | – | –
UGGUAGUUAGGAUAUACAUGAGGAUCACCCAUGUACGGGUGCAGAAAAGAAAGCCUUCGUAGAAGGAACACCUG [Aaredima] (Eterna round: R97, puzzle: Exclusion 3) | 69.1 | – | 62.6 | – | – | –
UUUUGCACGCUGCGGUCCUACAUGAGGAUCACCCAUGUGGUCUGGUGGCGUGGGUCGCCGGACUUGGCUCGUCUUGG [salish99_S_TOV1_R5_035] (Eterna round: R97, puzzle: Sensor, turn-off variant 1) | 15.5 | – | 14.9 | – | – | –
AGCUAUGCCGAGGAUAUCGGCUGGAUAAGACACUGAGAAGGCGGGACAUGAGGAUCACCCAUGUGAACCUAUAU [Eternabot (L1) Solution 30] (Eterna round: R97, puzzle: Exclusion 6) | 27.3 | – | 30.2 | – | – | –
GGUGAGCUAGGAUAUGCUUUGGGCUCGCUUUCCUUCGAUAUACUUGAGGAUCACCCAAGUAGAAGGAGCUUGCC [salish99_ex2_r4_034] (Eterna round: R97, puzzle: Exclusion 2) | 11.1 | – | 11.2 | – | – | –
UGCAGACGAGGAUAUAGAUUUAAGUACAUGAGGAUCACCCAUGUACACAUGUAUUUAGAUUUAGAAGGCGUCUGCU [E5/17-A4] (Eterna round: R97, puzzle: Exclusion 5) | 987 | – | 1210 | – | – | –
AGCAUGUGAGGAUAUGCGGACUCCGGUAAAGCUGGAGUCCAGUAGAAGGCACAUGAGGAUCACCCAUGUGAGAU [Uszadi] (Eterna round: R96, puzzle: Exclusion 4) | 317 | 53.3 | 63.2 | – | – | –
GCUUUUCUUUUCCUUUCUUACAUGAGGAUCACCCAUGUUUCUUGUCGUGCUCGCGUUGCUCGUCUGUCUGUCUGUUG [salish99_TOv1_r3_077(!)] (puzzle: Sensor v3, turn-off variant 1) | – | – | – | 44.4 | 35.1 | 50.8
GAGGCAUGCUGAGGUCCACACAUGAGGAUCACCCAUGUAAUGACAAGCUUUUUACUCAUCUUAUCGCUAUCGCGUUC [Tiinarre] (puzzle: Sensor v3, turn-off variant 1) | – | – | – | 19.1 | 66.6 | 16.3
UGCAUGCUAGGAUAUACGAAACAUUAGGGUUCUUUGUAUGAACAUGAGGAUCACCCAUGUAGAAGGAGCGUGCU [Mod7 of JL-ex2-2.15 mat747 mod] (puzzle: Exclusion 2) | – | – | – | – | 92.4 | –
UUCCUCACUUCUUUGUCUCACAUGAGGAUCACCCAUGUAAUAUAGGAUAUGCUUAGUAUUUCUAUGCAGAAGGAUAUUAGUUUU [JR_ExcNG3_Sub086] (Eterna round: R96, puzzle: Exclusion NG 3) | 111 | 27.3 | 32.3 | – | – | –
GCUUCUGGGCAAGGAUAUCCUGCGCUGUUCUGGUUCGUGUCUGUCACAUGAGGAUCACCCAUGUGGGAGAAGGUGCCUGUGGCG [Design 67] (Eterna round: R96, puzzle: Exclusion NG 2) | 20.9 | 17 | 24.8 | – | – | –
UUUUAGAGAGGAUAUAUAUUGUGAAACAUGAGGAUCACCCAUGUAAUAAUAUGGAUGUAAAUAGAAGGCUCAUUUA [JL-ex5-3.03] (puzzle: Exclusion 5) | – | – | – | 37.5 | 44.6 | 42.7
GUGAAGUAAGGAUAUACAUGAGGAUCACCCAUGUGGAGGAAGGUGAUGGGAGUAGGUAGUAGAAGGUACGAGGA [JR_Exclu3_Sub064] (Eterna round: R96, puzzle: Exclusion 3) | 304 | 134 | 207 | – | – | –
AAGUAUAGAGGAUAUAGUGAGUACUACAUGAGGAUCACCCAUGUUCUUCAUUACGUAUUUCUAGAAGGCUGAUAAA [EX-5 Malc#24] (puzzle: Exclusion 5) | – | – | – | 611 | 261 | 289
UUAUUUAGGUAGGAUAUCGAUACCAAUUACUAUCGAGAAGGGUCUACAUGAGGAUCACCCAUGUUAGCAUGUUU [LRO-Excl6-12-Rocketman] (Eterna round: R97, puzzle: Exclusion 6) | 26.4 | – | 24.9 | – | – | –
CCUCUACAUGAGGAUCACCCAUGUGAGGAUAUCUCGGAGCAGCCACUUAAGGCACUCCAGAGAAGGCACGUGUA [Oreresbe] (puzzle: Exclusion 1) | – | – | – | – | 16.6 | –
UAGCAUUGCCAAAGGUAGUGCAAAACAUGAGGAUCACCCAUGUAGGAUAUGGUAGGCAAAGCUUACCAGAAGGACAUGAUAAUU [Mat - Exclusion NG 3 - Mod of JL - D17] (Eterna round: R96, puzzle: Exclusion NG 3) | 204 | 46.3 | 51.5 | – | – | –
